T1: human C1s mutant M8 (E351A) (human, UniProt P09871 16-688)
T1 construct: The entry is the mutant itself
T1 sequence: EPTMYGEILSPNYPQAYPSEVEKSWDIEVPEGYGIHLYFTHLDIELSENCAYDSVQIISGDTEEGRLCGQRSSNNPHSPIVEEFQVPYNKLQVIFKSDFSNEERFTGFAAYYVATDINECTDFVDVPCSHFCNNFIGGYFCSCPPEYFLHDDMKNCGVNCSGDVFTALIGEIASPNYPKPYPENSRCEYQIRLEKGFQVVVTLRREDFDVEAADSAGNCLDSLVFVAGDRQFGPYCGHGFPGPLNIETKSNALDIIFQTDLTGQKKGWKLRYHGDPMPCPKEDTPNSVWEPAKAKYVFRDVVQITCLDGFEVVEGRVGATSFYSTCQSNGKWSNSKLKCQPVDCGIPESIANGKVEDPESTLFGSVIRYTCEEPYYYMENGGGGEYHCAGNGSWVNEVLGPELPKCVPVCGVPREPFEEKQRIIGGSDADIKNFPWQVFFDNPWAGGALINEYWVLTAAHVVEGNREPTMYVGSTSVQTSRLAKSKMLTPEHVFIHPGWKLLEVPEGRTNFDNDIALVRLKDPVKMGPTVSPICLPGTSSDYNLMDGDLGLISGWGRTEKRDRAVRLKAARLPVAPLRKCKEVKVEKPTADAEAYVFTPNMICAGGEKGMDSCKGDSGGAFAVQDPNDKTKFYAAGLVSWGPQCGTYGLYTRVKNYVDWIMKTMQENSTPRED

T2: human C1s proenzyme (CompTech A103) (human, UniProt P09871 16-688)
T2 construct: also called proenzyme human C1s (native C1s)
T2 sequence (looked up): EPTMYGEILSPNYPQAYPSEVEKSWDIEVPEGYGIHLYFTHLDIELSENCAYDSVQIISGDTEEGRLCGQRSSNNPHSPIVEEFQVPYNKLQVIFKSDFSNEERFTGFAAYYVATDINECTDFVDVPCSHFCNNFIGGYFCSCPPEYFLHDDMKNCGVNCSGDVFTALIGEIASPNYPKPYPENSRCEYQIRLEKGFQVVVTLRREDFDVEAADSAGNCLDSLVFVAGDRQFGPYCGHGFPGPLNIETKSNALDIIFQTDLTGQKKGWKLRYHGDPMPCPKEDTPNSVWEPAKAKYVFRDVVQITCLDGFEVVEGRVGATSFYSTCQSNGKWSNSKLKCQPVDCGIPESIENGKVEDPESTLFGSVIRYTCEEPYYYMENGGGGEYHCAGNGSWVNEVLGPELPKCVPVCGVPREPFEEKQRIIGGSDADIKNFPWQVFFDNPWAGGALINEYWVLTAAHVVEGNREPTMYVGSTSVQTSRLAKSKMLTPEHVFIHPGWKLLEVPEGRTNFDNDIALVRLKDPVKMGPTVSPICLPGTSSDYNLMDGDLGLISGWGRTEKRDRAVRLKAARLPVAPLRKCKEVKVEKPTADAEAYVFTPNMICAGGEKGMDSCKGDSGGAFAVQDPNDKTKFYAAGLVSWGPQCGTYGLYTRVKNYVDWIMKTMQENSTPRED

T3: active human C1s (CompTech A104 C1s Enzyme) (human, UniProt P09871 16-688)
T3 construct: also called human active C1s; active C1s protein
T3 sequence (looked up): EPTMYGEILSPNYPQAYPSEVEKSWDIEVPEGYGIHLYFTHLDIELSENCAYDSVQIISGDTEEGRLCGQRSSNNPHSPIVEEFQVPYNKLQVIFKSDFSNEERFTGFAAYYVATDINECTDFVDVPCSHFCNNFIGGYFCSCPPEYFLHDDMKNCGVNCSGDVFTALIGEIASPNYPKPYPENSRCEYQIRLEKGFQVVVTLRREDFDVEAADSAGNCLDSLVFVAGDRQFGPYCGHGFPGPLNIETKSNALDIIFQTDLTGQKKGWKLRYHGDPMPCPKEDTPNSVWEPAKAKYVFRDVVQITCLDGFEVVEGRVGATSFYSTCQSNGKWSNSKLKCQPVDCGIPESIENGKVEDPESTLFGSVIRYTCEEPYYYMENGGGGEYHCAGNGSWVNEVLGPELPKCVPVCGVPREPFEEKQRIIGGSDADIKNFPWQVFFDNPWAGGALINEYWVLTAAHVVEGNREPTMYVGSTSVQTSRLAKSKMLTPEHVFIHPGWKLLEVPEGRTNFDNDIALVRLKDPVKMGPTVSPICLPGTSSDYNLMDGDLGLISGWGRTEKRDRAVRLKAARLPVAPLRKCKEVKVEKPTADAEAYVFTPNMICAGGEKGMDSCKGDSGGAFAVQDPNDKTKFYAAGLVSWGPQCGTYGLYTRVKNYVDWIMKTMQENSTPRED


Experiments:
[1] = target: T1, human C1s mutant M8 (E351A); assay: ELISA, plate coated with human C1s mutant M8: E351A, OD450nm
Protocol: ELISA was carried out by first coating 96-well plates with 200 ng/well of full-length or truncated C1s proteins overnight. The next morning, plates were blocked with SuperBlock T20 blocking buffer (Thermo Scientific 37536) for 1 h with gentle shaking. Then, various concentrations of anti-C1s antibodies diluted in SuperBlock T20 blocking buffer were added to the plates and incubated for 1 h with gentle shaking. Mouse IgG (Sigma-Aldrich 15381) and human IgG1 (BioXCell BP0297) were used as negative controls. The plates were washed before incubating with HRP conjugated secondary antibodies diluted in SuperBlock T20 blocking buffer (goat anti-mouse IgG (H+L) cross-adsorbed secondary antibody HRP (Invitrogen G-21040) or goat anti-human IgG antibody, HRP conjugate (Millipore AP309P)) for 1 h with gentle shaking. At last, the plates were washed and color developed with ELISA liquid HRP substrate (Sigma-Aldrich), followed by stopping the reaction with addition of 1M H₂SO₄ in the same volume as the ELISA liquid substrate. Bound antibody was measured by absorbance at OD₄₅₀ₙₘ.
Binding of anti-C1s antibodies to mutants M1-M20 of human C1s was measured by ELISA as described in Example 4, and results are shown in FIGS. 6B-6U. All anti-C1s humanized variants including hz2-7(H1L2), hz2-8(H1L2 G80A) and hz2-8(H1L2 G80A/T82A) maintained strong binding properties to the majority (16 out of 20) of C1s mutants including M1 (FIG. 6B), M2 (FIG. 6C), M3 (FIG. 6D). M4 (FIG. 6E), M7 (FIG. 6H), M8 (FIG. 6I), M10 (FIG. 6K), M11 (FIG. 6L), M12 (FIG. 6M), M13 (FIG. 6N), M15 (FIG. 6P), M16 (FIG. 6Q), M17 (FIG. 6R), M18 (FIG. 6S), M19 (FIG. 6T) and M20 (FIG. 6U).

[2] = target: T2, human C1s proenzyme (CompTech A103); assay: ELISA, C1s coated on plate
Protocol: (§1) ELISA was carried out by first coating 96-well plates with 200 ng/well of human active C1s (CompTech A104, FIG. 3F) or human C1s proenzyme (CompTech A103, FIG. 3G) proteins overnight. The next morning, plates were blocked with SuperBlock T20 blocking buffer (Thermo Fisher Scientific Inc., Catalog No. 37536) for 1 h with gentle shaking. Then, various concentrations of anti-C1s antibodies diluted in SuperBlock T20 blocking buffer were added to the plates and incubated for 1 h with gentle shaking. Human IgG1 (BioXCell BP0297) was used as a negative control. The plates were washed before incubating with HRP conjugated secondary antibodies diluted in SuperBlock T20 blocking buffer (goat anti-human IgG antibody, HRP conjugate (Millipore AP309P)) for 1 h with gentle shaking. At last, the plates were washed and color developed with ELISA liquid substrate (Sigma-Aldrich), followed by stopping the reaction with addition of the same volume of […] 1M H₂SO₄. Bound antibody was measured by absorbance at OD₄₅₀ₙₘ.
(§2) The EC₅₀ for each antibody and target combination was determined as follows: for antibody 2-7, EC₅₀ for human active C1s is 12 ng/ml and EC₅₀ for human C1s proenzyme is 9 ng/ml; for antibody 2-8, EC₅₀ for human active C1s is 12 ng/ml and EC₅₀ for human C1s proenzyme is 10 ng/ml; for variant hz2-7(1L2), EC₅₀ for human active C1s is 13 ng/ml and EC₅₀ for human C1s proenzyme is 12 ng/ml; and for variant hz2-8(H1L2 G80A/T82A), EC₅₀ for human active C1s is 10 ng/ml and EC₅₀ for human C1s proenzyme is 8 ng/ml.

[3] = target: T3, active human C1s (CompTech A104 C1s …); assay: ELISA, C1s coated on plate
Protocol: as §1, §2

Binder	EC50 [1] [µg/mL]	EC50 [2] [µg/mL]	EC50 [3] [µg/mL]
Anti-C1s antibody hz2-7(H1L2) (antibody, V domains shown, Humanized, human IgG1 / kappa; also called hz2-7(1L2)) VH: EVQLLESGGGLVQPGGSLRLSCAASGFTFSNYFMNWVRQAPGKGLEWVSEIRLKFTNYATHYADSVKGRFTISRDDSKSTLYLQMNSLRAEDTAVYYCTRDYGSRNGYFDYWGQGTLVTVSS VL: DIVMTQTPLSLPVTPGEPASISCRSSKSLLHSNGNTFLYWFLQKPGQSPQLLIYRMSNLASGVPDRFSGSGSGTDFTLKISRVEAEDVGVYYCMQHLEYPYTFGGGTKLEIKR	0.016	0.012	0.013
Anti-C1s antibody hz2-8 (H1L2 G80A) (antibody, V domains shown, Humanized variant with G80A in HC CDR2 (already in the entry), human IgG1 / kappa) VH: QVQLVQSGAEVKKPGASVKVSCKASGFNIKEYYMHWVRQAPEQGLEWMGWIDPENADTIYAQKFQGRVTITADTSTNTAYMELSSLRSEDTAVYYCARSRLFFAYWGQGTLVTVSS VL: DIQMTQSPKSLSASVGDRVTITCRASQDVRTALDWYQQKPGQSPKLLIYSASYRYSGVPSRFSGSGSGTDFTLTISSLQPEDFATYYCQQQYTTPYTFGQGTKLEIKR	0.01		
Anti-C1s antibody 2-8 (antibody, V domains shown, the HC/LC entries may hold it too; also called clone 2-8) VH: EVQLQQSGAELVRPGALVKLSCKASGFNIKEYYMHWVKQRPEQGLEWIGWIDPENGDTIYDPKFQGKASITADTSSNTAYLQLSSLTSEDTAVYYCARSRLFFAYWGQGTLVTVSA VL: DIVMTQSHKFMSTSVGDRVSFTCKASQDVRTAVDWYQQKPGQSPKLLIYSASYRYTGVPDRFTGTGSGTDFTFTISSVQAEDLAVYFCQQQYTTPYTFGGGTKLEIKT		0.01	0.012

The remaining lines, values ahead:

EC50 [1] [µg/mL]	EC50 [2] [µg/mL]	EC50 [3] [µg/mL]	Binder
	0.009	0.012	Anti-C1s antibody 2-7 (antibody, human IgG1, kappa, V domains shown, the HC/LC entries may hold it too; also called clone 2-7) VH: EVKLEESGGGLVPPGGSMKLSCVASGFTFSNYFMNWVRQSPEKGLEWVAEIRLKFTNYATHYAESVEGRFTISRDDSKSSVYLQMNNLRAEDTGIYYCTRDYGSRNGYFDYWGQGTTLTVSS VL: DIVMTQAAPSVPVTPGESVSISCRSSKSLLHSNGNTFLYWFLQRPGQSPQLLIYRMSNLASGVPDRFSGSGSGTAFTLRVSRVEAEDVGIYYCMQHLEYPYTFGGGTKLEIKT
0.011	0.008	0.01	Anti-C1s antibody hz2-8 (H1L2 G80A/T82A) (antibody, V domains shown, Humanized variant with G80A and T82A in HC CDR2 (already in the entry), human IgG1 / kappa) VH: QVQLVQSGAEVKKPGASVKVSCKASGFNIKEYYMHWVRQAPEQGLEWMGWIDPENADAIYAQKFQGRVTITADTSTNTAYMELSSLRSEDTAVYYCARSRLFFAYWGQGTLVTVSS VL: DIQMTQSPKSLSASVGDRVTITCRASQDVRTALDWYQQKPGQSPKLLIYSASYRYSGVPSRFSGSGSGTDFTLTISSLQPEDFATYYCQQQYTTPYTFGQGTKLEIKR

— patent US20230051715A1 (MABWELL THERAPEUTICS, published 2023)
